From PMC4459817, “Vasculotide reduces endothelial permeability and tumor cell extravasation in the absence of binding to or agonistic activation of Tie2” (EMBO Molecular Medicine, 2015)

B1: recombinant human Ang1 (rhAng1) (ligand, UniProt Q15389 16-498, looked up)
chain: HIGCSNQRRSPENSGRRYNRIQHGQCAYTFILPEHDGNCRESTTDQYNTNALQRDAPHVEPDFSSQKLQHLEHVMENYTQWLQKLENYIVENMKSEMAQIQQNAVQNHTATMLEIGTSLLSQTAEQTRKLTDVETQVLNQTSRLEIQLLENSLSTYKLEKQLLQQTNEILKIHEKNSLLEHKILEMEGKHKEELDTLKEEKENLQGLVTRQTYIIQELEKQLNRATTNNSVLQKQQLELMDTVHNLVNLCTKEGVLLKGGKREEEKPFRDCADVYQAGFNKSGIYTIYINNMPEPKKVFCNMDVNGGGWTVIQHREDGSLDFQRGWKEYKMGFGNPSGEYWLGNEFIFAITSQRQYMLRIELMDWEGNRAYSQYDRFHIGNEKQNYRLYLKGHTGTAGKQSSLILHGADFSTKDADNDNCMCKCALMLTGGWWFDACGPSNLNGMFYTAGQNHGKLNGIKWHYFKGPSYSLRSTTMMIRPLDF
notes: angiopoietin-1, human, recombinant; also called angiopoietin-1; source: bought: R&D Systems (named for the Boyden chamber experiments)

Target: T1, human Tie2-Fc (hTie2-Fc) (Homo sapiens, UniProt Q02763)
T1 construct: Purified human or mouse Tie2-Fc (i.e., Fc-conjugated extracellular domains of Tie2); purchased R&D Systems 313-TI-100
Assay: SPR binding to human Tie2-Fc
Details: 37°C; for binding to Tie2-Fc: human Tie2-Fc, 0.625–10 nM, pH 7.4, Fig9C
From the text: To better understand the difficulties we had in observing Tie2 activation by VT, we sought to characterize the binding affinity and kinetics of VT to Tie2. Purified human or mouse Tie2-Fc (i.e., Fc-conjugated extracellular domains of Tie2) were first coupled to protein A sepharose beads for pull-down experiments (Fig9A and B) or immobilized on a Biacore CM5 sensor chip for surface plasmon resonance (SPR) experiments (Fig9C and Supplementary Fig S3).
Figure 9 Binding of Vasculotide vs. Ang1 variants to the extracellular domain of Tie2 • A–B Pull-down assay. Input ligands—rhAng1 (A) and VT (B)—were incubated with either protein A sepharose beads only, bead-conjugated mouse Tie2-Fc (mTie2), or bead-conjugated human Tie2-Fc (hTie2). […] The ‘unbound’ fraction is 7% of residual/free ligands remaining in the supernatant. • C Quantitative kinetics analysis by SPR. All analytes were run at increasing concentrations of 0.625, 1.25, 2.5, 5, and 10 nM, at 37°C and pH 7.4. […] Source data are available online for this figure. […]
9. Tie2 Receptor-Binding Assays
Vasculotide (VT) was manufactured by Bachem UK Ltd. T7c (CHHHRHSF) was synthesized by Genscript (Piscataway, NJ, USA). PEG-Cys consists of a single cysteine reacted to each of the 4 arms of PEG-maleimide (Sunbright PTE-100MA, NOF Corporation, Tokyo, Japan). BowAng1 (Ang1-Fd-Fc-Fd) was made and provided by Regeneron Pharmaceuticals, Inc. (Tarrytown, NY, USA). COMP-Ang1 was purified in the Kerbel lab from serum-free culture media conditioned by an engineered CHO cell line provided by Dr. Gou Young Koh (KAIST), according to published protocols (Hwang et al, 2008).
Recombinant human Angiopoietin-1 (rhAng1) and Vascular Endothelial Growth Factor ( rhVEGF) were […]
purchased from R&D Systems. […]
(structural/molecular weight control for VT), and 40 μL of supernatant (7% of residual/unbound ligand) – were similarly boiled in SDS sample buffer. Ang1 samples and controls were resolved by 7.5% polyacrylamide gel electrophoresis (PAGE), electroblotted onto PVDF membranes, and probed with an anti-Ang1 antibody (R&D Sytems, AF923; diluted 1:2,000 in TBS supplemented with 7% BSA and 0.1% Tween-20) at 75kDa (reduced monomers). VT samples and controls were resolved by 17% PAGE, blotted onto PVDF membranes, and probed with an anti-PEG antibody (Silver Lake Research, CH2074; diluted 1:4,000 in TBS supplemented with 7% BSA and 0.05% CHAPS*) at higher “apparent” molecular weights than the expected 14 and 10kDa due to their polymeric nature and large hydrodynamic radii (Zheng et al, 2007). *Note: non-ionic, PEO-based, polymer detergents were avoided at these steps as they cross-react with the anti-PEG antibody used for detecting VT.
Surface Plasmon Resonance (SPR) Experiments: The binding of analytes – VT, T7c peptide, PEG-Cys, rhAng1, COMP-Ang1, BowAng1, and rhVEGF – to the extracellular domain of Tie2 were […]
investigated by SPR using a Biacore T200 Instrument (GE Healthcare). For qualitative binding analysis, mTie2-Fc was dissolved in 10mM acetate buffer (pH 4.5) and immobilized at high density onto a CM5 sensor chip using amine coupling chemistry as described by the manufacturer to a response of 11,500RU.
Binding analysis were performed by exposure of immobilized mTie2-Fc to the analytes diluted in HBS-EP (0.01M HEPES pH 7.4, 0.15M NaCl, 3mM EDTA, 0.005% v/v Tween-20), which was supplemented with 1mg/mL carboxymethyl dextran (NSB reducer, GE Healthcare) to reduce non-specific binding to the sensor chip. Analytes were injected at 30μL/min (association time 120s, dissociation time 120s) at 37 °C, and the chip surface was regenerated each cycle by a 60s pulse of 4M MgCl2. To quantitatively determine the kinetic properties of the interaction (KD, kd, ka) and avoid mass transport limitations, mTie2-Fc and hTie2-Fc were immobilized at low density (1,000-1,200RU) onto separate flow cells of the CM5 chip using amine coupling chemistry. Kinetic analyses were performed using a single-cycle kinetic […]

[1] = Biacore T200, single-cycle kinetics, 1:1 model, 0.625–10 nM analyte, pH 7.4 (HBS-EP), Fig9C

T1 sequence (Q02763 23-748 limits assumed): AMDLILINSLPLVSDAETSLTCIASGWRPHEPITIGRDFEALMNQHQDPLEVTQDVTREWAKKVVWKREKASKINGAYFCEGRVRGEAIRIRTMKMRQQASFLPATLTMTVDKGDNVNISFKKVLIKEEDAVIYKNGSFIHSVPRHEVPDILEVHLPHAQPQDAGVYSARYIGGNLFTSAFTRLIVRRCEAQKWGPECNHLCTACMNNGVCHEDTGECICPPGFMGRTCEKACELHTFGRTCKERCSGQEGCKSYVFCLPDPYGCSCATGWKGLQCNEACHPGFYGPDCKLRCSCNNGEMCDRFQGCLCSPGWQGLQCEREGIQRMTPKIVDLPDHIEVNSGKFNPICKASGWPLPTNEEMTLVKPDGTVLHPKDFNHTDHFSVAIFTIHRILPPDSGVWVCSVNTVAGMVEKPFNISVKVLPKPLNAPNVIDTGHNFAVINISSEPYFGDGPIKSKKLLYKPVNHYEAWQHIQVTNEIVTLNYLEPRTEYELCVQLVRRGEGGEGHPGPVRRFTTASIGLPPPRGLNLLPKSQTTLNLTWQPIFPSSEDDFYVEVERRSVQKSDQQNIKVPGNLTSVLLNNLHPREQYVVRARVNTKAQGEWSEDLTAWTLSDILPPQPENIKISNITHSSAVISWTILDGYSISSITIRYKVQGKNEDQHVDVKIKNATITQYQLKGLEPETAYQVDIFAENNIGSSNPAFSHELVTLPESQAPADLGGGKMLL

| Molecule | binding to Tie2-Fc (listed as VT) | Off-rate, Kd [1] | On-rate, Ka [1] | binding to Tie2-Fc |
| --- | --- | --- | --- | --- |
| CHHHRHSF [Vasculotide, 4-armed maleimide-functionalized polyethylene glycol (PEG) backbone to link together four cysteine-capped T7 peptides, that is, CHHHRHSF] | no binding to Tie2-Fc was detectable | – | – | – |
| B1 | – | 0.00029 s⁻¹ | 1.4e+06 M⁻¹ s⁻¹ | bound strongly |
